This test has as its target T1, PD1 (Programmed Death 1) (human, UniProt Q15116 25-288).
T1 construct: whole, on cells
As to the kind of experiment: flow cytometry on T cells electroporated with PD1 and minibody mRNA; biotinylated goat anti-human IgG1 and streptavidin-PE. The text has this: FIG. 8 is a panel of images and graphs showing detection of PD1 minibody or PD1-PDL1 bispecific minibody bound on T cells. T cells were electroporated with mRNA (PD1, PD1 and PD1 minibody, and PD1 and PD1-PDL1 bispecific minibody) as specified. The T cells were stained with biotinylated goat anti-human IgG1 and then streptavidin-PE. Biotin anti-human IgG1 specifically detected PD1 minibody or PD1-PDL1 bispecific minibody […] when the cells expressed PD1. PD1 expressed on the T cell acted as an anchor for the secreted antibodies to bind that would otherwise not interact with the T cell.
Flow Cytometry Analysis. Tumor cells were cultured in the absence or presence of IFN-γ (R&D systems, Minneapolis, Minn.) at 20 ng/m1 for 24 hrs before the cells were harvested for staining with PDL1-PE (BioLegend). Live cells were gated on the live cell population by forward scatter/side scatter (FSC/SSC) and then PDL-1 positivity by PE expression. K562 cells and K562 PDL1/CD19 cells were stained with PDL1-PE (BioLegend, San Diego, Calif.) and CD19-PacBlue (Life Technologies, Carlsbad, Calif.). […]
FIG. 8 is a panel of images and graphs showing detection of PD1 minibody or PD1-PDL1 bispecific minibody on T cells. […] Biotin anti-human IgG1 specifically detected PD1 minibody or PD1-PDL1 bispecific minibody when the cells expressed PD1. […]
In general terms: In flow cytometry, cells or beads pass a laser one at a time.

We go through one molecule from patent US20200291354A1 (Novartis, published 2020).

T1 sequence (Q15116 25-288): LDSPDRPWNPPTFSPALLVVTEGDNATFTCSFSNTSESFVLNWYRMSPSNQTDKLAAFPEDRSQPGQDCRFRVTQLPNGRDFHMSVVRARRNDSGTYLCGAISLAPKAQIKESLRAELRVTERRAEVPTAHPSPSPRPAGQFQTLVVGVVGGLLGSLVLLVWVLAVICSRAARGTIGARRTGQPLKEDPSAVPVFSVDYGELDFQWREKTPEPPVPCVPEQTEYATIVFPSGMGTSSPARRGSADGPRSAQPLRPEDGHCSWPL

B1: PD1 minibody (other)
chain: QVQLQESGPGVVKPSGTLSLTCAISGGSIGSGGSIRSTRWWSWVRQSPGKGLEWIGEIYHSGSTNYNPSLKSRVTISLDKSRNHFSLRLNSVTAADTAVYYCARQDYGDSGDWYFDLWGKGTMVTVSSGGGSGGGSGGGSGGGSNFMLTQPHSVSESPGKTVTISCTRSSGSIASNSVQWYQQRPGSSPTTVIYEDNQRPSGVPDRFSGSIDSSSNSASLTVSGLKTEDEADYYCQSSDSSAVVFGSGTKLTVLEPKSCDKTHTCPPCGGGSSGGGSGGQPREPQVYTLPPSRDELTKNQVSLTCLVKGFYPSDIAVEWESNGQPENNYKTTPPVLDSDGSFFLYSKLTVDKSRWQQGNVFSCSVMHEALHNHYTQKSLSLSPGK
notes: Minibody: single chain VH-linker-VL-hinge-CH3, secreted by T cells electroporated with its mRNA; Variable regions are from PD1-17 of U.S. Pat. No. 7,488,802; also called PD1 minbody
On to B1, for which the binding result is reported as “binds”.
